Test results published in patent US20210139545A1 (IBA, published 2021).
Numbering of substitutions follows the chain as printed.

B1: mutein“1”-m45 (designed binder)
chain: EAGITGTWYNQLGSTFIVTAGADGALTGTYVTARGNAESRYVLTGRYDSAPATDGSGTALGWTVAWKNNYRNAHSATTWSGQYVGGAEARINTQWLLTSGTTEYNAGFSTLVGHDTFTKVKPSAAS
notes: Library 3 clone on mutein “1”
B2: mutein m4001 (designed binder)
chain: B1 chain with V31A, T32C, A33G, S39C, Y104A, G107W, F108K
notes: Library 2 clone
B3: mutein“1”-m23 (designed binder)
chain: B1 chain with G107Y, F108A
notes: Library 3 clone on mutein “1”
B4: mutein“1”-m4 (designed binder)
chain: B1 chain with Y104D
notes: Library 3 clone on mutein “1”
B5: mutein m402 (designed binder)
chain: B1 chain with V31A, T32C, S39C, Y104A, G107W, F108K
notes: Library 1 clone
B6: mutein“1”-m101 (designed binder)
chain: B1 chain with G107F, F108L
notes: Library 5 clone on mutein “1”
B7: mutein“1”-m36 (designed binder)
chain: B1 chain with G107F, F108M
notes: Library 3 clone on mutein “1”
B8: mutein“1”-m111 (designed binder)
chain: B1 chain with G107L, F108W
notes: Library 5 clone on mutein “1”
B9: mutein“1”-m41 (designed binder)
chain: EAGITGTWYNQLGSTFIVTAGADGALTGTYVTARGNAESRYVLTGRYDSAPATDGSGTALGWTVAWKNNYRNAHSATTWSGQYVGGAEARINTQWLLTSGTTEAWYSTLVGHDTFTKVKPSAAS
notes: Library 3 clone on mutein “1”
B10: mutein“1”-m302 (designed binder)
chain: B9 chain with A104H
notes: Library 7 clone on mutein “1”, 118 and 119 deleted
B11: mutein“1”-m301 (designed binder)
chain: B9 chain with A104H, Y106M
notes: as for B10
B12: mutein“1”-m212 (designed binder)
chain: B9 chain with A104H, Y106L
notes: Library 6 clone on mutein “1”, 118 and 119 deleted
B13: mutein“1”-m207 (designed binder)
chain: B9 chain with A104T, Y106L
notes: as for B12

target: T1, cytochrome b562 with C-terminally fused Strep-tagII (E. coli); assay: affinity chromatography, retention after overload; tied to m45 by Table 9 (308 % against 11 %)
T1 construct: also called Cytb562-StrepII; Cytb562-StrepIII

Binder	retained Cytb562-StrepII relative to wt streptavidin
B1	28 fold

target: T2, E. coli alkaline phosphatase Strep-tag®II fusion protein (E. coli, UniProt P00634 22-471 = phosphatase); assay: ELISA, second experiment, mutein coated, BAP-StrepII titrated
T2 construct: mature; also called BAP-StrepII; BAP-StrepIII

Binder	Kd	(Δ(A405-A595)/Δt)max
B2	27 nM	–
B3	13 nM	644 mOD
B4	12 nM	518 mOD

target: T2, E. coli alkaline phosphatase …; assay: ELISA, mutein coated, BAP-StrepII titrated

Binder	Kd	(Δ(A405-A595)/Δt)max	KD(mutein“1”)/KDmutein
B5	92 nM	–	–
B2	20 nM	–	–
B1	18 nM	566 mOD	6.1
B6	14 nM	589 mOD	7.9
B3	12 nM	968 mOD	9.2
B7	12 nM	945 mOD	9.2
B8	13 nM	492 mOD	8.5
B4	9 nM	716 mOD	12.2
B9	13 nM	613 mOD	8.5
B10	5 nM	726 mOD	22
B11	10 nM	725 mOD	11
B12	17 nM	607 mOD	6.5
B13	27 nM	493 mOD	4.1

target: T1, cytochrome b562 with C-terminally fused …; assay: affinity chromatography, overloaded Sepharose column, washed, biotin elution

Binder	Retained Cytb562-StrepII	Retained Cytb562-StrepII per immobilized mutein	Retained Cytb562-StrepII per immobilized mutein relative to mutein “1”
B5	111 µg	0.14 µg/µg	111%
B2	175 µg	0.16 µg/µg	127%
B1	472 µg	0.39 µg/µg	308%
B3	479 µg	0.31 µg/µg	245%
B7	429 µg	0.32 µg/µg	254%
B8	318 µg	0.31 µg/µg	246%
B4	564 µg	0.35 µg/µg	280%
B9	289 µg	0.2 µg/µg	155%
B10	350 µg	0.28 µg/µg	221%
B11	400 µg	0.28 µg/µg	225%
B12	390 µg	0.25 µg/µg	197%
B13	358 µg	0.29 µg/µg	229%

target: T1, cytochrome b562 with C-terminally fused …; assay: affinity chromatography, capture from dilute solution (500 µg applied, 1 mg mutein)

Binder	yield of Cytb562-StrepII applied
B5	31%
B2	34%
B1	67%
B3	60%
B7	61%
B8	67%
B4	64%
B9	47%
B10	63%
B11	57%
B12	47%
B13	55%
